experiment: soluble fraction after stress (log2 fold change); higher = more stays soluble; pooled small domains, quantitative proteomics; settings: stress: 50 degC
Outline: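 After stress at 50°C, the amount of each protein still soluble was measured. This was done on pooled custom libraries of small protein domains, using high-throughput quantitative proteomics. The figure given is a base-two log fold change and stands for aggregation propensity, with higher values meaning more protein stays in solution.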

Sequence	soluble fraction (log2)
HMPSSAYGPYKNVFLSNSELTKLKNELPTSWEHYINRLSEYMRSTGRQYQSHAATILRWAATDRNS	-0.139
HMKIIDDIQEFAGVTKTQNTFFHIFNHLHQNGKQLILTSDRAPVMLQGMEERLLTRFKWGLVAELE	0.257
HMELDIGKKAIVIEKIDPEAGTGRVRIEGVDWGAKTADSSVIEKGETVVVKAKGAAFVTVAK	0.18
HMINKIANLSAELRMEGLPVSIRSTQAAVKIYMDLGGDDRNLLKTALMSIYVKDRYDIPKFNKVFEKLFA	-1.12
HMADWTETELAALRRAYASGTTRVSYDGKSVDYGSAEDLLSRIRTLQGAASDVAADAVAAVDA	0.0524
HMGNGDTNERIATLMQILAKQESIINQYGLENPVVSPQMYVRTLKKVVELSGFKDASSYFADIPDGWKA	-0.00533
HMSEQGVITAKFASIVGNQNIQLVMFPDSVYLKGQVSSEEEKKRAETVASSLIQDRKIVNLIEFE	-0.0169
HMINPASEKQLSFANSLIAKKEGGTETLNHYLHNRKVSSLEELDRKDVSEIINALKFAKEVT	0.217
HMEGGLIMDRIEKGLQSGVMPDLRGLNLKDALYLLESYVQVQVIGSGGVIKQSIKTGDKFIMGSVIKLEL	-0.0813
HMKLEEITIIVPSLRLDNFVSDLARTSRSKAVQIIDSERVFINGQNETKASKQVKLGDVITSA	-0.277
HMKITADQEIETAINYFKKSIAEKGWKGVNPDEFKQMNDYLSETFGYSATIKFQKALDEQGLMVDE	0.0602
HMGVRDIRIFERNNSFFVNAEIRGEAQLSVPITRTDYQLFKENKIDALSLVEKYYAEELNASNEMK	-0.164
HMTIGKIVNIIEGSYANVRSAPDQNSEPIGRAYPGDAFLVDPLGSSGDWVKVTYEGQSGFIFQAYISV	-1.29
HMTIGKRIKRRRIELKMSIDSLARTIGKDRSTVYRYESGAIDKVSSDVLAKLATALNTTPAYLIGL	-3.27
HMITETIGANIKTLRDKFRMSQQDLASKMNTARPVISNWENGKTEPSSSQLLKLAKIFDTSTDKILGNV	0.163
HMSFSSLSNDILSEIQKDNNITYDELSEKLQKDRATIYRNMKKLVENGLLKRVGGRKSGHWEIIE	0.189
HMGDIMLLFKENGKVYFLVGNQYTYVKNPTELSAIKTMMKQAGYDTHEHTNTTQVAYIKRLATE	-2.11
HMFSIDRNIRRLRKEAGLTQEELAQKLFVTRQTISLWELGKVHPDLETLQKLAEQFQVDLLQVLYGPE	-2.17
HMSAAYVYVTGTRVNQRDGPSTFDRVMGVLVEGTRVQLLRDQGQWAQIRSDLGTGWLSSGFLSRNG	-1.87

Sequence	soluble fraction (log2)
HMDYAQAQRQAESAIALRPDVERLRLLLIYALQKQGKLREAEQAAADAIKSGLDTPALRQARANLRP	-0.264
HMSRIDRKGLTSQIVNHLSKNPGKNFTLKQFFRNLKLNTHPLKMLAVDVLNKLLDTNFITRNEDGEFFLKA	0.337
HMQINLKQSSDEELVKIITVQVHHYEPHTVKAAEAEIERRGIDKMRMAHLVKKVAQENTAVQEIQD	0.18
HMVSDTGAIEAIVAQVLADNPKLVEGYLATPEDKRGKAIGPFIGLTRKAAAGVNPQVVMDVLKKKLSEL	-0.0515
HMDPVILDINSVKALLGISNKADFMAELSRLVVTEGDKKMIIPLAKEVGIDNVAVYKRNEIENISNYK	-0.1
HMDSALKDDLNAFVKKLDVESQTLFMRRYFLGESVSSLASRFEMSEDNVGVKLFRIRAKLKKYLTGKGYD	-2.28
HMISRKIKELRLSHDLTQKDLADYLNLTPKMVSFYELGQRVPPSDIILKLAEKFHVSTDYLLGNEDRP	-0.0279
HMGASVGEVESVKTASEIYTAAAGKIVAVNDAVAKDPSLVNSDPYGNGWLVKLEIADLSAINA	0.000115
HMKNTLDAYIRYLSNFLSRNNYPEAEDLSFINARADQAYEVFLEARRGGVDVSTAEELAMIALMQGY	-1.13
HMSINISFEPADHLGKDVIFIRFPYDNEWIQRVRKLKGAKWSQSQRAWHVPDTEHYRTLFQLPQKI	-2.6
HMIDIDNLEKAAILLLSMGTEAAAKVMQKLSRDEVQRLISKMASLSGVSSIEAKWTLQQFFNQYREQSG	-0.638
HMKITLAESVYERIRRDIITNQLKPGEKINIRELSTRYEASETPIRLALNRLASENIIEHFPRQGMRVK	-0.371
HMDLGEQIIEKLRAAGGFLAITDKSPAEEIYELFATSKKNYKKAVGGLYKKGLLVIEDDGIRLTPAGR	-0.102
HMRYVVQVATFSSKNNAIRAADDLAGFVVVSNGYYRVRTGPYADRGEANAALAKARKAGYTDAFVDTS	-0.798
HMEEQELQLIQFPIASGSAWAGKAVRELILPPETLLVMLIRGTETMIPKGDTMVQEGDTAVLSASAYRDD	-0.434
HMDREQLELYVGEVRVLQVGELRRIAIGNGKVLQASALDRGQLLLIPEAPGQSVLYLWTRDGTERHLSISV	-0.203
HMLLTASNYFKETKGINFSELPEALQKGHSFVIKSTENGTNWNAYSTSQNIQRVIDAYFSKLDEYLEKNQ	-0.611
HMKLPIEKESYRIIWDLEEESFRIRLKISENSPQEEKNILINQAIEDIENITGEPIDKSPYYVLYE	0.0672
HMADNILPAQTDAIKALATENGFSNESLEKYLIENYGTTIYGLSRNQGIQIINLFQSENPPKP	0.144

Source: the domain aggregation screens of Martell et al. (2025)
